Where two headings read alike, the source gives them in different places.

Experiment [1] deals with full-length human IL-36R on cells (human) (UniProt Q9HB29).
Experiment [2] has the same target. The experiment can be described thus: cell-based or functional assay.
For experiment [3], the target named is Macaca fascicularis IL-36R on cells (Macaca fascicularis). As to the kind of experiment: cell-based or functional assay.
Experiment [4] addresses full-length human IL-36R on cells (human) (UniProt Q9HB29). This is another data set of the same source.

Sequence of Macaca fascicularis IL-36R on cells (Macaca fascicularis) (chain, as listed by the source): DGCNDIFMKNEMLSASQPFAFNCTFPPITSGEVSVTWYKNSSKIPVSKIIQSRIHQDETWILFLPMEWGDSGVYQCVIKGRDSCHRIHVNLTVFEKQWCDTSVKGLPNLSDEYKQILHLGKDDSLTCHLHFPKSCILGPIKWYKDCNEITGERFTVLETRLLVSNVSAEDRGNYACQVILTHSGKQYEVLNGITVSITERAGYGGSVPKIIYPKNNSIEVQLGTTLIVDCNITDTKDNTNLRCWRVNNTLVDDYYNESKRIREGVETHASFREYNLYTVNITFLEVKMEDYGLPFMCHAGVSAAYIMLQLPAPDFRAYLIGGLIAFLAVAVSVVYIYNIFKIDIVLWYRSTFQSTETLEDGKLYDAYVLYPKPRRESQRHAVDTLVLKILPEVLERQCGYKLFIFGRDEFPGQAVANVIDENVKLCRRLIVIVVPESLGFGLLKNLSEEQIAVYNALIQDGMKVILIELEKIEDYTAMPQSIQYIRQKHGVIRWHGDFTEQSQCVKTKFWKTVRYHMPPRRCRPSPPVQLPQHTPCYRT

B1: human IL-36β (ligand, UniProt Q9NZH7 5-157, looked up)
chain: REAAPKSYAIRDSRQMVWVLSGNSLIAAPLSRSIKPVTLHLIACRDTEFSDKEKGNMVYLGIKGKDLCLFCAEIQGKPTLQLKLQGSQDNIGKDTCWKLVGIHTCINLDVRESCFMGTLDQWGIGVGRKKWKSSFQHHHLRKKDKDFSSMRTN
For B1, in experiment [1], the EC50 (read off the curve) of hIL36β, NFκB-luciferase RLU, in the presence of 0.3 nM REGN6490 was determined as 0.008 nM; the EC50 (read off the curve) of hIL36β, NFκB-luciferase RLU, in the presence of 1 nM REGN6490 turned out to be 0.02 nM; the EC50 (read off the curve) of hIL36β, NFκB-luciferase RLU, in the presence of 3 nM REGN6490 came out at 0.08 nM; the EC50 (read off the curve) of hIL36β, NFκB-luciferase RLU, in the presence of 9 nM REGN6490 was found to be 0.3 nM. The molecule further showed an EC50 (read off the curve) of hIL36β, NFκB-luciferase RLU, no antibody in experiment [1] of 0.003 nM. Moreover, in experiment [2], the EC50, NFκB-luciferase, HEK293/NFκB-luc/hIL-36R cells worked out at 0.014 nM. In experiment [3], this molecule came in with an EC50, NFκB-luciferase, HEK293/NFκB-luc/MfIL-36R cells of 0.27 nM. Further, in experiment [4], the EC50 (read off the curve) of hIL36β, NFκB-luciferase RLU, in the presence of 0.1 nM REGN6489 came to 0.005 nM; the EC50 (read off the curve) of hIL36β, NFκB-luciferase RLU, in the presence of 0.3 nM REGN6489 was determined as 0.01 nM; the EC50 (read off the curve) of hIL36β, NFκB-luciferase RLU, in the presence of 1 nM REGN6489 stood at 0.03 nM; the EC50 (read off the curve) of hIL36β, NFκB-luciferase RLU, in the presence of 3 nM REGN6489 is 0.1 nM. Besides, in experiment [4], the EC50 (read off the curve) of hIL36β, NFκB-luciferase RLU, in the presence of 9 nM REGN6489 came out at 0.3 nM and the EC50 (read off the curve) of hIL36β, NFκB-luciferase RLU, no antibody came to 0.002 nM.

These data come from US20200017592A1.
